According to paper PMC6262902, “Characterization of a New Cyclohexylamine Oxidase From Acinetobacter sp. YT-02” (Frontiers in Microbiology, 2018):

Tests used:
[1] = target: cyclohexylamine oxidase from Acinetobacter sp. YT-02 (Acinetobacter sp. YT-02); assay: SEC; gel filtration on Superose 6 Increase 10/300GL; 10 mM phosphate buffer, pH 7.4, 140 mM NaCl; calibrated with apoferritin (443 kDa), alcohol dehydrogenase (150 kDa), bovine albumin (66 kDa), carbonic anhydrase (29 kDa)
[2] = substrate: NC1CCCCC1; assay: purified protein; format: biochemical, Acinetobacter sp. YT-02; conditions: 50 °C, pH 7.0 sodium phosphate

Row | Molecule | stoichiometry N [1] | Km [2] [µM] | Vmax [2] [µM/min] | kcat [2] [s⁻¹] | kcat/Km [2] [M⁻¹ s⁻¹]
1 | cyclohexylamine oxidase from Acinetobacter sp. YT-02 (enzyme) | 2 | – | – | – | –
2 | CHAOYT–02 (Acinetobacter sp. YT-02) (protein, full-length ORF of 460 residues, no signal peptide; pET-28b 6xHis tag and vector residues kept (53,534 Da with tag); E. coli BL21 (DE3); dimer about 91 kDa; FAD enzyme) MSVNDNRESASYDADVIVVGAGPSGSYAAKLLHDRGISVKLVEAKDRVGGRTWSSKTEAQGGPIDFGGQWIGETHVLLPELGEELGLETVSSIKPGNDIFVFNGQVTVGEEDQAPASASWTAELTRSFELLDEAGARLGWEAPWASPAVEALDGMTVAQWLDENVSSDEVRMIHEVMVNILNGANTTEVSMAYWAYFVHQGEGIESLIGTRSGAQIAWFVGGMGQVTELIADRLGDNLHLNWPVTSIEQQDSGVVVSSGDRRLTAKYVILATPPSDASRMIFDQPLPAKRAQLQARAPMGRLAKIQVRYRDAFWQEENLSGAAFVCGDLAFWVFDGSKPSDSLATIVGFIGGKHLDLWHSFTPEEREARFIDMLVTNIGEKARDTVYYHETDWTEQPWTGGAPVTFMPTGLLSSSGSALRGSAGRIHFAGTEAAPMWSGYIEGALRAGKIAATDIIARLG | – | 250 ± 20 | 4300 | 523 ± 10 | 2.08e+06
